Molecular target: KLB + bFKB1
Assay: SPR; preformed bFKB1/KLB complex

Row | Binder | koff
1 | FGFR1b (receptor) RPSPTLPEQAQPWGAPVEVESFLVHPGDLLQLRCRLRDDVQSINWLRDGVQLAESNRTRITGEEVEVQDSVPADSGLYACVTSSPSGSDTTYFSVNVSDALPSSEDDDDDDDSSSEEKETDNTKPNRMPVAPYWTSPEKMEKKLHAVPAAKTVKFKCPSSGTPNPTLRWLKNGKEFKPDHRIGGYKVRYATWSIIMDSVVPSDKGNYTCIVENEYGSINHTYQLDVVERSPHRPILQAGLPANKTVALGSNVEFMCKVYSDPQPHIQWLKHIEVNGSKIGPDNLPYVQILKTAGVNTTDKEMEVLHLRNVSFEDAGEYTCLAGNSIGLSHHSAWLTVLEALEERPAVMTSPLYLE | 0.0402 s⁻¹
2 | FGFR1c (receptor) RPSPTLPEQAQPWGAPVEVESFLVHPGDLLQLRCRLRDDVQSINWLRDGVQLAESNRTRITGEEVEVQDSVPADSGLYACVTSSPSGSDTTYFSVNVSDALPSSEDDDDDDDSSSEEKETDNTKPNPVAPYWTSPEKMEKKLHAVPAAKTVKFKCPSSGTPNPTLRWLKNGKEFKPDHRIGGYKVRYATWSIIMDSVVPSDKGNYTCIVENEYGSINHTYQLDVVERSPHRPILQAGLPANKTVALGSNVEFMCKVYSDPQPHIQWLKHIEVNGSKIGPDNLPYVQILKTAGVNTTDKEMEVLHLRNVSFEDAGEYTCLAGNSIGLSHHSAWLTVLEALEERPAVMTSPLYLE | 0.00291 s⁻¹

From patent publication US20250011471A1 (published 2025)
